Test results reported in PMC7026483.

Target: T1, GlxR-A131T A131T (Corynebacterium glutamicum WT (ATCC 13032?)) (UniProt Q79VI7)
T1 sequence: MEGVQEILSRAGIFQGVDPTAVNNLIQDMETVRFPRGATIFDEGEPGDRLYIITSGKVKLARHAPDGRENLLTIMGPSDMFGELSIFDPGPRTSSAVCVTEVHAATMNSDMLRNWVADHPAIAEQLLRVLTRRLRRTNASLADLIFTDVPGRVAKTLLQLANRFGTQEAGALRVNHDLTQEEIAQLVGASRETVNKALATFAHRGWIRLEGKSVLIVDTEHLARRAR
Assay: EMSA
Details: EMSA: 100 ng DNA, 200 nM protein, with or without 0.2 mM cAMP, 30 min, room temperature, 10% native PAGE; binding buffer as in Bussmann et al. 2009 (not …)

Row | Sequence | binding
1 | CTTCCTGGCGAAATGTCCGTCAAATTGTGAACCCCTTCACACCTTTGGTTAAAAGTCACTGCCCACAAGTGACTGAACCTGGCAGCGACCTCATGAATTGTTTGAAAAACATTTTTTTTGGGCATGAAAAGGGGATACAG (double strand) [ctaD promoter fragment] | binds
2 | GGTGGAAATATCTTCGTGGGTTTCGTTTTTAGGGGCGTCAAATGTCTTTCAACTGCAACGATATGCCCGAATCCTCAGGTGGAATACCTAAAGTCTAGGCAATTGGTGTATGCCACGTCACAGACCATCAAC (double strand) [ctaCF promoter fragment] | binds
